Measured values published in US20240327535A1 (EISAI R AND D MANAGEMENT, published 2024).
Changes are numbered by the printed parent chain. Where two headings read alike, the source gives them in different places.

T1: human BCMA on NCI-H929, OPM2 and Raji cells (human, UniProt Q02223 1-184)
T1 construct: endogenous BCMA of human cell lines; also called TNFRSF17; CD269
T1 chain: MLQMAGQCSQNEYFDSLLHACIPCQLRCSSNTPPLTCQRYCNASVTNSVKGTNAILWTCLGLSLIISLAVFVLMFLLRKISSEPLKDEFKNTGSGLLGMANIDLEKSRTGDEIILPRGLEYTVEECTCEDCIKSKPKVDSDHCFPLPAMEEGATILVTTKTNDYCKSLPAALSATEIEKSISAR

T2: extracellular domain of human BCMA (human, UniProt Q02223 1-54)
T2 construct: amine-linked to Octet AR2G tips; also called hsBCMA; BCMA (human)
T2 sequence: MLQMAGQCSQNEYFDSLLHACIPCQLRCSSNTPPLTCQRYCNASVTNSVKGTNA

B1: AB212-ADL1-D2-02 (antibody, human IgG1, kappa, V domains shown)
VH: QVQLVQSGAEVKKPGSSVKVSCKASGGTFSNYWIHWVRQAPGQGLEWMGGTYRSHSDTNYNQKFKSRVTITADKSTSTAYMELSSLRSEDTAVYYCARGAIYHGYDVIENWGQGTLVTVSS
VL: DIQMTQSPSSLSASVGDRVTITCRASQSISSYLNWYQQKPGKAPKLLIYATSNLQIGVPSRFSGSGSGTDFTLTISSLQPEDFATYYCQQFRRLPWTFGQGTKLEIKR
modifications: ADL1-D2 linker-payload on cysteine residues of the antibody, DAR 5.17
B2: AB200-(2Vk35)_R2-VH-v36 (Fab, V domains shown)
VH: B1 VH with G50A, N59Y, N61A, Q62E, Y102F, E109D
VL: B1 VL with L33I, I56S, F91Y, L94I
B3: AB200-(2Vk35)_R2-VH-v11 (Fab, V domains shown)
VH: B1 VH with F29Y, G50A, Q62E, I101V, E109D
VL: B1 VL with L33I, I56S, F91Y, L94I
B4: AB200-(2Vk35)_R2-VH-v9 (Fab, V domains shown)
VH: B1 VH with F29Y, G50A, H55Q, Y105F, E109D
VL: B1 VL with L33I, I56S, F91Y, L94I
B5: AB200-(2Vk35)_R2-VH-v55 (Fab, V domains shown)
VH: B1 VH with T28S, G50A, S54I, D57T, N59Y, F64Y, I101V, E109D
VL: B1 VL with L33I, I56S, F91Y, L94I
B6: AB200-(2Vk44)_R2-VH-v60 (Fab, V domains shown)
VH: B1 VH with S54I, H55Q, N59Y
VL: B1 VL with L33I, F91Y, T97S
B7: AB200-(2Vk35)_R2-VH-v26 (Fab, V domains shown)
VH: B1 VH with G50A, D57T, N59Y, N61A, Y102F, E109D
VL: B1 VL with L33I, I56S, F91Y, L94I
B8: AB200-(2Vk44)_R2-VH-v64 (Fab, V domains shown)
VH: B1 VH with G50A, S54I, D57T, N59Y, N61A, Y105F, E109D
VL: B1 VL with L33I, F91Y, T97S
B9: AB200-(2Vk35)_R2-VH-v48 (Fab, V domains shown)
VH: B1 VH with F29Y, S54I, D57T, N59Y, Y105F, E109D
VL: B1 VL with L33I, I56S, F91Y, L94I
B10: AB200-(2Vk35)_R2-VH-v15 (Fab, V domains shown)
VH: B1 VH with T28S, G50A, H55Q, D57T, N59Y, Y102F, E109D
VL: B1 VL with L33I, I56S, F91Y, L94I
B11: AB200-(2Vk44)_R2-VH-v7 (Fab, V domains shown)
VH: B1 VH with F29Y, G50A, D57T, N59Y, N61A, Y105F, E109D
VL: B1 VL with L33I, F91Y, T97S
B12: AB200-(2Vk35)_R2-VH-v62 (Fab, V domains shown)
VH: B1 VH with S54I, N59Y, Q62E
VL: B1 VL with L33I, I56S, F91Y, L94I
B13: AB200-(2Vk44)_R2-VH-v68 (Fab, V domains shown)
VH: B1 VH with G50A, S54I, N61A, K74E, Y105F, E109D
VL: B1 VL with L33I, F91Y, T97S
B14: AB200-(2Vk44)_R2-VH-v44 (Fab, V domains shown)
VH: B1 VH with S30T, G50A, S54I, N61A
VL: B1 VL with L33I, F91Y, T97S
B15: AB200-(2Vk44)_R2-VH-v41 (Fab, V domains shown)
VH: B1 VH with S30T, S54I, N59Y, Q62E, Y105F, E109D
VL: B1 VL with L33I, F91Y, T97S
B16: AB200-(2Vk35)_R2-VH-v8 (Fab, V domains shown)
VH: B1 VH with F29Y, H55Q, N59Y, Y105F, E109D
VL: B1 VL with L33I, I56S, F91Y, L94I
B17: AB200-(2Vk35)_R2-VH-v69 (Fab, V domains shown)
VH: B1 VH with G50A, S54I, H55Q, I101V, E109D
VL: B1 VL with L33I, I56S, F91Y, L94I
B18: AB200-(2Vk44)_R2-VH-v22 (Fab, V domains shown)
VH: B1 VH with H55Q, N59Y, I101V, E109D
VL: B1 VL with L33I, F91Y, T97S
B19: AB200-(2Vk44)_R2-VH-v24 (Fab, V domains shown)
VH: B1 VH with N59Y, Q62E, Y102F, E109D
VL: B1 VL with L33I, F91Y, T97S
B20: AB200-(2Vk35)_R2-VH-v49 (Fab, V domains shown)
VH: B1 VH with F29Y, G50A, S54I, H55Q, D57T, N59Y
VL: B1 VL with L33I, I56S, F91Y, L94I
B21: AB200-(2Vk35)_R2-VH-v46 (Fab, V domains shown)
VH: B1 VH with F29Y, G50A, S54I, H55Q
VL: B1 VL with L33I, I56S, F91Y, L94I
B22: AB200-(2Vk44)_R2-VH-v72 (Fab, V domains shown)
VH: B1 VH with G50A, S54I, H55Q, N59Y, N61A, I101V, E109D
VL: B1 VL with L33I, F91Y, T97S
B23: AB200-(2Vk35)_R2-VH-v63 (Fab, V domains shown)
VH: B1 VH with G50A, S54I, D57T, K74E, I101V, E109D
VL: B1 VL with L33I, I56S, F91Y, L94I
B24: AB200-(2Vk44)_R2-VH-v53 (Fab, V domains shown)
VH: B1 VH with T28S, G50A, S54I, F64Y, Y102F, E109D
VL: B1 VL with L33I, F91Y, T97S
B25: AB200-(2Vk30)_R2-VH-v74 (Fab, V domains shown)
VH: B1 VH with G50A, S54I, N59Y, N61A, Q62E, Y105F, E109D
VL: B1 VL with F91Y, L94I
B26: AB200-(2Vk44)_R2-VH-v58 (Fab, V domains shown)
VH: B1 VH with S54I, Y105F, E109D
VL: B1 VL with L33I, F91Y, T97S
B27: AB200-(2Vk44)_R2-VH-v14 (Fab, V domains shown)
VH: B1 VH with T28S, G50A, D57T, N59Y, Q62E, I101V, E109D
VL: B1 VL with L33I, F91Y, T97S
B28: AB200-(2Vk35)_R2-VH-v32 (Fab, V domains shown)
VH: B1 VH with G50A, F64Y, Y102F, E109D
VL: B1 VL with L33I, I56S, F91Y, L94I
B29: AB200-(2Vk44)_R2-VH-v70 (Fab, V domains shown)
VH: B1 VH with G50A, S54I, F64Y, I101V, E109D
VL: B1 VL with L33I, F91Y, T97S
B30: AB200-(2Vk44)_R2-VH-v35 (Fab, V domains shown)
VH: B1 VH with G50A, N59Y, N61A, F64Y
VL: B1 VL with L33I, F91Y, T97S
B31: AB200-(2Vk44)_R2-VH-v54 (Fab, V domains shown)
VH: B1 VH with T28S, G50A, S54I, Q62E
VL: B1 VL with L33I, F91Y, T97S
B32: AB200-(2Vk44)_R2-VH-v1 (Fab, V domains shown)
VH: B1 VH with S30T, N59Y, F64Y
VL: B1 VL with L33I, F91Y, T97S
B33: AB200-(2Vk35)_R2-VH-v76 (Fab, V domains shown)
VH: B1 VH with G50A, S54I, H55Q, N59Y, Q62E, Y105F, E109D
VL: B1 VL with L33I, I56S, F91Y, L94I
B34: AB200-(2Vk35)_R2-VH-v56 (Fab, V domains shown)
VH: B1 VH with T28S, G50A, S54I, N59Y, N61A, F64Y, Y102F, E109D
VL: B1 VL with L33I, I56S, F91Y, L94I
B35: AB200-(2Vk44)_R2-VH-v61 (Fab, V domains shown)
VH: B1 VH with S54I, N59Y, F64Y
VL: B1 VL with L33I, F91Y, T97S
B36: AB200-(2Vk44)_R2-VH-v28 (Fab, V domains shown)
VH: B1 VH with G50A, D57T, N59Y, F64Y, Y105F, E109D
VL: B1 VL with L33I, F91Y, T97S
B37: AB200-(2Vk35)_R2-VH-v38 (Fab, V domains shown)
VH: B1 VH with G50A, H55Q, N59Y, Q62E, Y105F, E109D
VL: B1 VL with L33I, I56S, F91Y, L94I
B38: AB200-(2Vk35)_R2-VH-v52 (Fab, V domains shown)
VH: B1 VH with T28S, G50A, S54I, H55Q, N59Y, N61A, Y102F, E109D
VL: B1 VL with L33I, I56S, F91Y, L94I

Key:
[1] = target: T1, human BCMA on NCI-H929, OPM2 and Raji …; assay: flow cytometry, NCI-H929 cells
[2] = target: T3, extracellular domain of rhesus monkey BCMA (rhesus monkey, UniProt F7FFA0 1-53); assay: Octet BLI; Fab 200 nM
T3 construct: extracellular domain; also called RhBCMA
T3 sequence (F7FFA0 entry or part of it): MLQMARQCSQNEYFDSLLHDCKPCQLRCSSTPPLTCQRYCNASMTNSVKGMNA

[3] = target: T2, extracellular domain of human BCMA; assay: Octet BLI; Fab 200 nM
[4] = target: T3, extracellular domain of rhesus monkey …; assay: Octet BLI; Fab 200 nM; remark: listed apart in the source
[5] = target: T2, extracellular domain of human BCMA; assay: Octet BLI; Fab 200 nM; remark: listed apart in the source
[6] = target: T3, extracellular domain of rhesus monkey …; assay: Octet BLI; Fab 200 nM; remark: listed apart in the source
[7] = target: T2, extracellular domain of human BCMA; assay: Octet BLI; Fab 200 nM; remark: listed apart in the source

| Binder | Kd [2] [nM] | Kd [3] [nM] | Kd [4] [nM] | Kd [5] [nM] | other results |
| --- | --- | --- | --- | --- | --- |
| B1 | – | – | – | – | Kd [1]: 1.3 nM |
| B2 | 14.8 | 3.15 | – | – | – |
| B3 | 130 | 47 | – | – | – |
| B4 | 103 | 49.3 | – | – | – |
| B5 | 43.1 | 19.7 | – | – | – |
| B6 | – | – | 38.6 | 11.1 | – |
| B7 | 40.7 | 20.9 | – | – | – |
| B8 | – | – | 36.5 | 22.1 | – |
| B9 | 52 | 36.6 | – | – | – |
| B10 | 48.6 | 25.5 | – | – | – |
| B11 | – | – | 71.7 | 40.6 | – |
| B12 | 49 | 14.5 | – | – | – |
| B13 | – | – | 110 | 60.3 | – |
| B14 | – | – | 290 | 86.4 | – |
| B15 | – | – | 12.6 | 3.73 | – |
| B16 | 38 | 12.1 | – | – | – |
| B17 | 46.6 | 16.2 | – | – | – |
| B18 | – | – | 11.1 | 2.31 | – |
| B19 | – | – | 20.8 | 6.44 | – |

| Binder | Kd [2] [nM] | Kd [3] [nM] | Kd [4] [nM] | Kd [5] [nM] | other results |
| --- | --- | --- | --- | --- | --- |
| B20 | 126 | 63.2 | – | – | – |
| B21 | 287 | 103 | – | – | – |
| B22 | – | – | 12.4 | 2.16 | – |
| B23 | 9.56 | 27.1 | – | – | – |
| B24 | – | – | 103 | 52.5 | – |
| B25 | – | – | – | – | Kd [6]: 9.83 nM; Kd [7]: 2.17 nM |
| B26 | – | – | 52.6 | 27.2 | – |
| B27 | – | – | 16.9 | 7.55 | – |
| B28 | 67.3 | 29.1 | – | – | – |
| B29 | – | – | 35.8 | 12.4 | – |
| B30 | – | – | 52.8 | 16.2 | – |
| B31 | – | – | 151 | 68.8 | – |
| B32 | – | – | 40 | 11.8 | – |
| B33 | 8.46 | 1.93 | – | – | – |
| B34 | 44.7 | 11.3 | – | – | – |
| B35 | – | – | 59.6 | 19.2 | – |
| B36 | – | – | 20.9 | 10.9 | – |
| B37 | 9.59 | 1.89 | – | – | – |
| B38 | 25.7 | 6.24 | – | – | – |
